Data as given in patent US8058228B2, “Leptin peptide antagonists” (Boston Biomedical Research Institute, priority 2004, dated 2011).

Molecular target: T1, OB-R (Homo sapiens, UniProt P48357)
T1 construct: After confirming via Western that the primary EEC and ESC and endometrial cell lines utilized herein had OB-R; endogenous in cells; host or cells: primary human EEC and ESC; Ishikawa (ECACC 9832301) and HES cell lines
T1 sequence (P48357 22-1165): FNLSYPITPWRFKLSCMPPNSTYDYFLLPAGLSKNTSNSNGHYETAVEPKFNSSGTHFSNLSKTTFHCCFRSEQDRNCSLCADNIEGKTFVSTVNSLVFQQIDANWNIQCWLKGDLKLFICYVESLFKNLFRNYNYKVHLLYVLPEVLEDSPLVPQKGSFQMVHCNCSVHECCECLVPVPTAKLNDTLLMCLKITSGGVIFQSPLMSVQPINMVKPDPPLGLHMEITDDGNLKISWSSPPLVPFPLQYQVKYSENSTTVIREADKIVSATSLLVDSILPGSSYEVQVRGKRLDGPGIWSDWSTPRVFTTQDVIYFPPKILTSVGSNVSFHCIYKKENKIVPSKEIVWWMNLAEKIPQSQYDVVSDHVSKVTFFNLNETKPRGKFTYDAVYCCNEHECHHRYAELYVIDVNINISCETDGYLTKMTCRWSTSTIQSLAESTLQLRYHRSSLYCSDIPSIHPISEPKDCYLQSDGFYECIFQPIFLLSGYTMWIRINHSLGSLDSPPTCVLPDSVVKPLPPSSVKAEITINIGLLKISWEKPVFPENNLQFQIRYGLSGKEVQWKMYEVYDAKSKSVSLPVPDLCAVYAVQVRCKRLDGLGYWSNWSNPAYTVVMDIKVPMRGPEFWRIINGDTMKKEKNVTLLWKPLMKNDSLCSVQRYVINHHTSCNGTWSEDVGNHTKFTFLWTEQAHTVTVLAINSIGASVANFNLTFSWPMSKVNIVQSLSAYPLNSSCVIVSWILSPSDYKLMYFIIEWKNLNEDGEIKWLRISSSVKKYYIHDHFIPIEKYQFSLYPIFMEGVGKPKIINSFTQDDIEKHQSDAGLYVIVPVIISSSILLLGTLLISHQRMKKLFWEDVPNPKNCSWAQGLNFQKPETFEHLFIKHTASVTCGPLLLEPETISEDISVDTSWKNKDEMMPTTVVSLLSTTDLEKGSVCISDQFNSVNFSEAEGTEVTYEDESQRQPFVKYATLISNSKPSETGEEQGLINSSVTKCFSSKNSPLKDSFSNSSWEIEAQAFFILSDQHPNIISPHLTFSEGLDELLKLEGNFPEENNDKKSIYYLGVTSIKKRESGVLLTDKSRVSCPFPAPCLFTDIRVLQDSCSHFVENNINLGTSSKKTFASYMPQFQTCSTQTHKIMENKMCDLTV
Experiment: p-STAT3 levels in human endometrial cells (Western blot)
Assay type: cell-based
Settings: for effect on leptin-induced increase of p-STAT3 levels: peptide 300 nM
Method: Primary human endometrial cells (ESC and EEC) were cultured for 5-9 days in DMEM-F12 medium containing 5% fetal bovine serum (FBS), 5 μg/ml insulin, 1% amphopthericin B, 100 μg/ml streptomycin and 100 U/ml penicillin until they were 80% confluent. Two types of endometrial epithelial cell lines, HES (originally derived from a benign proliferative endometrium) and Ishikawa (human endometrial epithelial adenocarcinoma, ECACC 9832301, Wiltshire, England) were cultured under the same conditions described above. The cells were washed twice with 100 mM phosphate saline buffer (PBS), pH 7.2 and cultured for additional 2 days in the same medium but without FBS (basal medium). Cells were washed as described before and cultured in basal medium containing leptin (0, 3, 10 or 62 nM) or IL-1β (0.6, 3 and 10 nM).
The anti-OB-R antibody (10 and 20 μg/ml) and LPA-2, a specific inhibitor of OB-R (3, 120, 300 nM or 30 μM) were used to assess whether leptin-induced effects were regulated primarily by the OB-R. Non-specific species-matched IgGs to the OB-R antibody and a scrambled version of LPA-2 (LPA-2Sc) served as negative controls (Gonzalez and Leavis, Endocrine 21: 185-195 (2003)). Inhibitors of IL-1R were used (monoclonal antibody anti-IL-1R tl and IL-1Ra) to assess whether leptin activated IL-1 induced signaling pathways or just activated similar components responsible for LIF/LIF-R expression. Treatment with the cytokine, inhibitor or the two combined was implemented for 5, 15, 30 and 60 min, and 24 and 48 h. The cells were prepared for Western blot analysis. The conditioned media was collected, lyophilized and stored at −80° C. until analysis for LIF, IL-1β and IL-1Ra by ELISA could be performed. Duplicate wells were run for each treatment and the experiments repeated at least three times with different cell preparations.
Endometrial cells were washed with ice-cold PBS and lysed by homogenization on ice with lysis buffer A [[…] Tris, pH 7.4, containing 137 nM NaCl, 2 mM EDTA, 10% glycerol, 50 mM β-glycerophosphate, 1% Nonidet P-40 and a mixture of proteases and phosphatase inhibitors composed of 100 μM antipain, 0.1 mg/ml trypsin inhibitor, protease inhibitor cocktail 1:50 (Sigma), 50 nM NaF, 2 mM phenyl-methylsulfonyl fluoride, and 2 mM sodium orthovanadate]. Cellular lysates were centrifuged at 2400 g at 4° C. for 10 min. For nuclear lysates the cells were scraped from the culture plates and homogenized with lysis buffer B (10 nM Tris, pH 7.4, 0.25 M sucrose, 0.1 mM EDTA containing the same mixture of protease and phosphatase inhibitors as buffer A). Protein concentrations were determined using the Bradford protein assay (BioRad Laboratories Inc., Hercules, Calif.).
30 μg of protein from nuclear or cellular lysates were incubated in ependorf tubes containing 0.5 μg of primary antibodies (anti-LIF-R, OB-R, STAT3 and p-STAT3 diluted in buffer A) for 2 h at 4° C. under constant stirring. The immuno-complexes were incubated with 20 μl of Protein G-Agarose (Amersham Pharmacia Biotech) diluted 1:1 with buffer A for a 2 additional hours under constant stirring. The beads were centrifuged for 1 min at 1000 g and washed with buffer A containing 0.5 M NaCl followed by a final wash with buffer A.
Cellular lysates and their immunoprecipitates containing 10-30 μg of protein plus Laemmli buffer (1:1) were incubated at 95° C. for 5 min. […]

Row | Substance | p-STAT3 level compared to non-treated control cells (Ishikawa cells, LPA-2 treatment) | effect on leptin-induced increase of p-STAT3 levels (Ishikawa cells, leptin 62 nM) | p-STAT3 levels over non-treated controls after leptin (Ishikawa cells, leptin 62 nM) | p-STAT3 levels after leptin (primary EEC, leptin 10 and 62 nM, 5 min, nuclear extracts)
1 | SRNVIQISNDLENLRDLLHVLAFSKS [LPA-2, 26 amino acid peptide, residues 70-95 of helix III of the human leptin molecule; leptin peptide antagonist] | decrease level of p-STAT3 | inhibited the leptin-induced increase | – | –
2 | leptin: human recombinant leptin (R&D Systems), OB-R ligand used as stimulus | – | – | increased the levels of p-STAT3 | increase in the levels of p-STAT3
3 | VAEVLNRSDLIQRISFSLDLNNSKLH [LPA-2Sc, scrambled version of LPA-2, negative control, reference compound] | – | had no effect | – | –
